Measurements published in patent publication US20200121775A1.

Target: HLA A02:01 class I molecule with β2-microglobulin (human)
Test: REVEAL MHC class I binding/stabilization assay (ProImmune)

Substance: positive control peptide (REVEAL assay)
- REVEAL Score: 100 score
